Results reported in paper PMC3663837.

What was measured:
[1] = biological target: SUMO-StPTB6; test: phage ELISA; settings: parent: est. 0.19; read off a plot
[2] = biological target: SUMO-StPTB1; test: phage ELISA; settings: parent: est. 0.18; read off a plot

Substance	response [1]	response [2]
phage-displayed StNova1 subdomain S2 G7del; G11del; P13del	0.043 λ490	0.044 λ490
phage-displayed StNova1 subdomain S2 G7del; G11del; G15del; G18del	0.079 λ490	0.079 λ490
phage-displayed StNova1 subdomain S2 G15del; G18del; P21del	0.13 λ490	0.11 λ490
